{
  "source": "the supplement of paper PMC9112550",
  "about": "“Optimization of the antimicrobial peptide Bac7 by deep mutational scanning” (BMC Biology, 2022);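 also: peptides expressed intracellularly from a pBAD plasmid library in pooled LB shake-flask culture, induced with 0.3% L-arabinose, DNA abundance read by NGS, three biological replicates, DESeq2 with apeglm shrinkage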",
  "data": [
    {"test_system": "Escherichia coli TOP10", "test": "shrunken log2 fold change of peptide-encoding DNA abundance (4.5 h post-induction vs induction); higher = less antimicrobial activity (less host growth inhibition)", "settings": "time post-induction: 4.5 h; library: site-saturation at positions 5, 18, 19, 20", "values": [
      {"sequence": "RRIRVRPPRLPRPRPRPFRGPRP", "shrunken log2 fold change": 0.0214},
      {"sequence": "RRIRRRPPRLPRPRPRPITSPRP", "shrunken log2 fold change": -0.00199},
      {"sequence": "RRIRCRPPRLPRPRPRPCHNPRP", "shrunken log2 fold change": -0.734},
      {"sequence": "RRIRARPPRLPRPRPRPMVYPRP", "shrunken log2 fold change": -0.0537},
      {"sequence": "RRIRMRPPRLPRPRPRPCIHPRP", "shrunken log2 fold change": 0.00462},
      {"sequence": "RRIRCRPPRLPRPRPRPTVGPRP", "shrunken log2 fold change": 0.224},
      {"sequence": "RRIRHRPPRLPRPRPRPRCFPRP", "shrunken log2 fold change": -0.143},
      {"sequence": "RRIRKRPPRLPRPRPRPQALPRP", "shrunken log2 fold change": 0.228},
      {"sequence": "RRIRMRPPRLPRPRPRPNAQPRP", "shrunken log2 fold change": 0.43},
      {"sequence": "RRIRRRPPRLPRPRPRPTHIPRP", "shrunken log2 fold change": 0.274},
      {"sequence": "RRIRRRPPRLPRPRPRPWRDPRP", "shrunken log2 fold change": -0.0485},
      {"sequence": "RRIRSRPPRLPRPRPRPAGFPRP", "shrunken log2 fold change": 0.262},
      {"sequence": "RRIRDRPPRLPRPRPRPESDPRP", "shrunken log2 fold change": 0.000356},
      {"sequence": "RRIRMRPPRLPRPRPRPFLEPRP", "shrunken log2 fold change": -0.088},
      {"sequence": "RRIRMRPPRLPRPRPRPGKNPRP", "shrunken log2 fold change": 0.417},
      {"sequence": "RRIRCRPPRLPRPRPRPQMYPRP", "shrunken log2 fold change": -0.14},
      {"sequence": "RRIRSRPPRLPRPRPRPLYNPRP", "shrunken log2 fold change": -0.344},
      {"sequence": "RRIRERPPRLPRPRPRPEHWPRP", "shrunken log2 fold change": 0.0984},
      {"sequence": "RRIRLRPPRLPRPRPRPNNPPRP", "shrunken log2 fold change": -0.157},
      {"sequence": "RRIRDRPPRLPRPRPRPMWDPRP", "shrunken log2 fold change": 0.00712},
      {"sequence": "RRIRCRPPRLPRPRPRPPKVPRP", "shrunken log2 fold change": -0.138},
      {"sequence": "RRIRDRPPRLPRPRPRPEYIPRP", "shrunken log2 fold change": -0.0149},
      {"sequence": "RRIRPRPPRLPRPRPRPWAYPRP", "shrunken log2 fold change": -0.0727},
      {"sequence": "RRIRARPPRLPRPRPRPMSTPRP", "shrunken log2 fold change": -0.0262},
      {"sequence": "RRIRVRPPRLPRPRPRPTPMPRP", "shrunken log2 fold change": 0.259},
      {"sequence": "RRIRLRPPRLPRPRPRPNPSPRP", "shrunken log2 fold change": 0.104},
      {"sequence": "RRIRGRPPRLPRPRPRPMIEPRP", "shrunken log2 fold change": 0.953},
      {"sequence": "RRIRERPPRLPRPRPRPGSGPRP", "shrunken log2 fold change": 0.101},
      {"sequence": "RRIRGRPPRLPRPRPRPDTRPRP", "shrunken log2 fold change": 0.162},
      {"sequence": "RRIRFRPPRLPRPRPRPGVMPRP", "shrunken log2 fold change": 0.238},
      {"sequence": "RRIRNRPPRLPRPRPRPVRPPRP", "shrunken log2 fold change": 0.555},
      {"sequence": "RRIRRRPPRLPRPRPRPVKEPRP", "shrunken log2 fold change": -0.128},
      {"sequence": "RRIRKRPPRLPRPRPRPWYEPRP", "shrunken log2 fold change": -0.0672},
      {"sequence": "RRIRTRPPRLPRPRPRPVDFPRP", "shrunken log2 fold change": 0.231},
      {"sequence": "RRIRDRPPRLPRPRPRPIGPPRP", "shrunken log2 fold change": 0.0272},
      {"sequence": "RRIRDRPPRLPRPRPRPYSRPRP", "shrunken log2 fold change": -0.00164},
      {"sequence": "RRIRHRPPRLPRPRPRPQNYPRP", "shrunken log2 fold change": -1.11},
      {"sequence": "RRIRARPPRLPRPRPRPNAVPRP", "shrunken log2 fold change": 0.0101},
      {"sequence": "RRIRNRPPRLPRPRPRPCPPPRP", "shrunken log2 fold change": -0.328},
      {"sequence": "RRIRCRPPRLPRPRPRPVAKPRP", "shrunken log2 fold change": 0.275},
      {"sequence": "RRIRIRPPRLPRPRPRPGPDPRP", "shrunken log2 fold change": -0.0181},
      {"sequence": "RRIRARPPRLPRPRPRPWFCPRP", "shrunken log2 fold change": 0.0743},
      {"sequence": "RRIRFRPPRLPRPRPRPDQEPRP", "shrunken log2 fold change": -0.0176},
      {"sequence": "RRIRHRPPRLPRPRPRPSPQPRP", "shrunken log2 fold change": -0.358},
      {"sequence": "RRIRWRPPRLPRPRPRPDTCPRP", "shrunken log2 fold change": -0.0059},
      {"sequence": "RRIRKRPPRLPRPRPRPTNPPRP", "shrunken log2 fold change": 0.155},
      {"sequence": "RRIRPRPPRLPRPRPRPKQYPRP", "shrunken log2 fold change": -0.29},
      {"sequence": "RRIRQRPPRLPRPRPRPPAMPRP", "shrunken log2 fold change": -0.0312},
      {"sequence": "RRIRTRPPRLPRPRPRPEFPPRP", "shrunken log2 fold change": 0.0504},
      {"sequence": "RRIRQRPPRLPRPRPRPFAAPRP", "shrunken log2 fold change": 0.336},
      {"sequence": "RRIRSRPPRLPRPRPRPGCYPRP", "shrunken log2 fold change": -0.173},
      {"sequence": "RRIRRRPPRLPRPRPRPYMAPRP", "shrunken log2 fold change": -0.69},
      {"sequence": "RRIRERPPRLPRPRPRPCQPPRP", "shrunken log2 fold change": 0.0208},
      {"sequence": "RRIRFRPPRLPRPRPRPIIGPRP", "shrunken log2 fold change": -0.024},
      {"sequence": "RRIRPRPPRLPRPRPRPQHFPRP", "shrunken log2 fold change": -0.297},
      {"sequence": "RRIRVRPPRLPRPRPRPTSEPRP", "shrunken log2 fold change": 0.066},
      {"sequence": "RRIRTRPPRLPRPRPRPGFAPRP", "shrunken log2 fold change": 0.33},
      {"sequence": "RRIRNRPPRLPRPRPRPGSCPRP", "shrunken log2 fold change": -0.247},
      {"sequence": "RRIRFRPPRLPRPRPRPGHNPRP", "shrunken log2 fold change": -0.409},
      {"sequence": "RRIRTRPPRLPRPRPRPNVNPRP", "shrunken log2 fold change": 1.5}
    ]}
  ]
}
